The chains are these.
B1: GLS3000 N28Q one-arm antibody (antibody, human IgG1, kappa, L234A L235A, N297A, name in Kabat numbering)
heavy: QVQLVESGGGVVQPGRSLRLSCAASGFTFSNAWMHWVRQAPGKGLEWVAQIKAKSNNYATYYAESVKGRFTISRDDSKNSLYLQMNSLKTEDTAVYYCRYVHYGAYYGVDAWGQGTTVTVSSASTKGPSVFPLAPSSKSTSGGTAALGCLVKDYFPEPVTVSWNSGALTSGVHTFPAVLQSSGLYSLSSVVTVPSSSLGTQTYICNVNHKPSNTKVDKKVEPKSCDKTHTCPPCPAPEAAGGPSVFLFPPKPKDTLMISRTPEVTCVVVDVSHEDPEVKFNWYVDGVEVHNAKTKPREEQYASTYRVVSVLTVLHQDWLNGKEYKCKVSNKALPAPIEKTISKAKGQPREPQVYTLPPSRCELTKNQVSLSCAVKGFYPSDIAVEWESNGQPENNYKTTPPVLDSDGSFFLVSKLTVDKSRWQQGNVFSCSVMHEALHNHYTQKSLSLSPDYKDDDDK
chain: EPKSSDKTHTCPPCPAPELLGGPSVFLFPPKPKDTLMISRTPEVTCVVVDVSHEDPEVKFNWYVDGVEVHNAKTKPREEQYNSTYRVVSVLTVLHQDWLNGKEYKCKVSNKALPAPIEKTISKAKGQPREPQVCTLPPSRDELTKNQVSLWCLVKGFYPSDIAVEWESNGQPENNYKTTPPVLDSDGSFFLYSKLTVDKSRWQQGNVFSCSVMHEALHNRYTQKSLSLSP
light: DIVMTQSPLSLPVTPGEPASISCRSSQSLVHSQRNTYLHWYQQKPGQAPRLLIYKVSNRFSGVPDRFSGSGSGTDFTLKISRVEAEDVGVYYCGQGTQVPYTFGQGTKLEIKRTVAAPSVFIFPPSDEQLKSGTASVVCLLNNFYPREAKVQWKVDNALQSGNSQESVTEQDSKDSTYSLSSTLTLSKADYEKHKVYACEVTHQGLSSPVTKSFNRGEC
B2: GLS3000 N53I one-arm antibody (antibody, human IgG1, kappa, L234A L235A, N297A, name in Kabat numbering)
heavy: B1 heavy
chain: B1 chain
light: B1 light with Q33N, N58I
B3: GLS3000 N30D one-arm antibody (antibody, human IgG1, kappa, L234A L235A, N297A, name in Kabat numbering)
heavy: B1 heavy
chain: B1 chain
light: B1 light with Q33N, N35D
B4: GLS3000 N30S one-arm antibody (antibody, human IgG1, kappa, L234A L235A, N297A, name in Kabat numbering)
heavy: B1 heavy
chain: B1 chain
light: B1 light with Q33N, N35S
B5: GLS3000 N28T one-arm antibody (antibody, human IgG1, kappa, L234A L235A, N297A, name in Kabat numbering)
heavy: B1 heavy
chain: B1 chain
light: B1 light with Q33T
B6: GLS3000 N28V one-arm antibody (antibody, human IgG1, kappa, L234A L235A, N297A, name in Kabat numbering)
heavy: B1 heavy
chain: B1 chain
light: B1 light with Q33V
B7: GLS3000 N30Q one-arm antibody (antibody, human IgG1, kappa, L234A L235A, N297A, name in Kabat numbering)
heavy: B1 heavy
chain: B1 chain
light: B1 light with Q33N, N35Q
B8: GLS3000 N30L one-arm antibody (antibody, human IgG1, kappa, L234A L235A, N297A, name in Kabat numbering)
heavy: B1 heavy
chain: B1 chain
light: B1 light with Q33N, N35L
B9: GLS3000 N30H one-arm antibody (antibody, human IgG1, kappa, L234A L235A, N297A, name in Kabat numbering)
heavy: B1 heavy
chain: B1 chain
light: B1 light with Q33N, N35H
B10: GLS3000 N28W one-arm antibody (antibody, human IgG1, kappa, L234A L235A, N297A, name in Kabat numbering)
heavy: B1 heavy
chain: B1 chain
light: B1 light with Q33W
B11: GLS3000 N53H one-arm antibody (antibody, human IgG1, kappa, L234A L235A, N297A, name in Kabat numbering)
heavy: B1 heavy
chain: B1 chain
light: B1 light with Q33N, N58H
B12: GLS3000 N30V one-arm antibody (antibody, human IgG1, kappa, L234A L235A, N297A, name in Kabat numbering)
heavy: B1 heavy
chain: B1 chain
light: B1 light with Q33N, N35V
B13: GLS3000 N53G one-arm antibody (antibody, human IgG1, kappa, L234A L235A, N297A, name in Kabat numbering)
heavy: B1 heavy
chain: B1 chain
light: B1 light with Q33N, N58G
B14: GLS3000 N30M one-arm antibody (antibody, human IgG1, kappa, L234A L235A, N297A, name in Kabat numbering)
heavy: B1 heavy
chain: B1 chain
light: B1 light with Q33N, N35M
B15: GLS3000 N30G one-arm antibody (antibody, human IgG1, kappa, L234A L235A, N297A, name in Kabat numbering)
heavy: B1 heavy
chain: B1 chain
light: B1 light with Q33N, N35G
B16: GLS3000 N30R one-arm antibody (antibody, human IgG1, kappa, L234A L235A, N297A, name in Kabat numbering)
heavy: B1 heavy
chain: B1 chain
light: B1 light with Q33N, N35R
B17: GLS3000 N30F one-arm antibody (antibody, human IgG1, kappa, L234A L235A, N297A, name in Kabat numbering)
heavy: B1 heavy
chain: B1 chain
light: B1 light with Q33N, N35F
B18: GLS3000 N30Y one-arm antibody (antibody, human IgG1, kappa, L234A L235A, N297A, name in Kabat numbering)
heavy: B1 heavy
chain: B1 chain
light: B1 light with Q33N, N35Y
B19: GLS3000 N30I one-arm antibody (antibody, human IgG1, kappa, L234A L235A, N297A, name in Kabat numbering)
heavy: B1 heavy
chain: B1 chain
light: B1 light with Q33N, N35I
B20: GLS3000 N30K one-arm antibody (antibody, human IgG1, kappa, L234A L235A, N297A, name in Kabat numbering)
heavy: B1 heavy
chain: B1 chain
light: B1 light with Q33N, N35K
B21: GLS3000 N53D one-arm antibody (antibody, human IgG1, kappa, L234A L235A, N297A, name in Kabat numbering)
heavy: B1 heavy
chain: B1 chain
light: B1 light with Q33N, N58D
B22: GLS3000 N53E one-arm antibody (antibody, human IgG1, kappa, L234A L235A, N297A, name in Kabat numbering)
heavy: B1 heavy
chain: B1 chain
light: B1 light with Q33N, N58E
B23: GLS3000 N53F one-arm antibody (antibody, human IgG1, kappa, L234A L235A, N297A, name in Kabat numbering)
heavy: B1 heavy
chain: B1 chain
light: B1 light with Q33N, N58F
B24: GLS3000 N53A one-arm antibody (antibody, human IgG1, kappa, L234A L235A, N297A, name in Kabat numbering)
heavy: B1 heavy
chain: B1 chain
light: B1 light with Q33N, N58A
B25: GLS3000 N30T one-arm antibody (antibody, human IgG1, kappa, L234A L235A, N297A, name in Kabat numbering)
heavy: B1 heavy
chain: B1 chain
light: B1 light with Q33N, N35T
B26: GLS3000 N28S one-arm antibody (antibody, human IgG1, kappa, L234A L235A, N297A, name in Kabat numbering)
heavy: B1 heavy
chain: B1 chain
light: B1 light with Q33S
B27: GLS3000 N28Y one-arm antibody (antibody, human IgG1, kappa, L234A L235A, N297A, name in Kabat numbering)
heavy: B1 heavy
chain: B1 chain
light: B1 light with Q33Y
B28: GLS3000 N30E one-arm antibody (antibody, human IgG1, kappa, L234A L235A, N297A, name in Kabat numbering)
heavy: B1 heavy
chain: B1 chain
light: B1 light with Q33N, N35E
B29: GLS3000 N30P one-arm antibody (antibody, human IgG1, kappa, L234A L235A, N297A, name in Kabat numbering)
heavy: B1 heavy
chain: B1 chain
light: B1 light with Q33N, N35P
B30: GLS3000 N53K one-arm antibody (antibody, human IgG1, kappa, L234A L235A, N297A, name in Kabat numbering)
heavy: B1 heavy
chain: B1 chain
light: B1 light with Q33N, N58K
B31: GLS3000 N30W one-arm antibody (antibody, human IgG1, kappa, L234A L235A, N297A, name in Kabat numbering)
heavy: B1 heavy
chain: B1 chain
light: B1 light with Q33N, N35W
B32: GLS3000 N30A one-arm antibody (antibody, human IgG1, kappa, L234A L235A, N297A, name in Kabat numbering)
heavy: B1 heavy
chain: B1 chain
light: B1 light with Q33N, N35A

Changes are numbered by the printed parent chain. Numbers in names are those of the source.

This test deals with T1, CD3ε homodimer protein (human, UniProt P07766 23-126, limits assumed).
T1 construct: also called CD3 (CD3ε)
T1 sequence (P07766 23-126 limits assumed): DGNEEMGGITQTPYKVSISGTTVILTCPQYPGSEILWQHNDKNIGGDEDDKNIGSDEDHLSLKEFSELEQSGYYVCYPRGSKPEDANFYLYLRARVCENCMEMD
Nature of the test: SPR Biacore T200, CD3ε homodimer on chip.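 Further: Light-chain single-residue variant antibodies injected over amine-coupled CD3ε homodimer on a CM4 chip at 25 °C, bound amount divided by that of the GLS3000-containing antibody.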 For orientation: Surface plasmon resonance follows binding to a sensor surface in real time, without labels.
Protocol: Each one-amino acid altered form constructed, expressed, and purified in the paragraph (6-2) was evaluated using Biacore T200 (GE Healthcare Japan Corp.). An appropriate amount of CD3ε homodimer protein was immobilized onto Sensor chip CM4 (GE Healthcare Japan Corp.) by the amine coupling method. Then, the antibody having an appropriate concentration was injected thereto as an analyte and allowed to interact with the CD3ε homodimer protein on the sensor chip. Then, the sensor chip was regenerated by the injection of 10 mmol/L glycine-HCl (pH 1.5). The assay was conducted at 25° C., and HBS-EP+ (GE Healthcare Japan Corp.) was used as a running buffer. […] Each parameter was calculated using Biacore T200 Evaluation Software (GE Healthcare Japan Corp.).
Specifically, when the amount of the GLS3000-containing antibody bound was defined as X and the amount of the L chain one-amino acid altered form bound was defined as Y, a value of Z (ratio of amounts bound)=Y/X was used.
For B1, the “ratio of amount bound vs unaltered GLS3000” value (shortened to “ratio of amount bound”) turned out to be 0.37.
With B2, the “ratio of amount bound” value turned out to be 0.5.
Next, B3: 0.34.
On to B4, for which the “ratio of amount bound” value came to 0.29.
For the molecule B5, the “ratio of amount bound” value stood at 0.45.
As for B6, the figure is 0.36; as for B7, 0.87; as for B8, 0.7.
For the molecule B9, the “ratio of amount bound” value came out at 0.98.
As for B10, the figure is 0.41; as for B11, 1.18; as for B12, 0.61.
For B13, the “ratio of amount bound” value was 0.76.
Regarding B14, the “ratio of amount bound” value was 0.8.
As for B15, the figure is 0.47.
Next, B16: 1.86; B17: 1.1.
As for B18, the figure is 1.04.
For B19, the “ratio of amount bound” value came to 0.61.
As for B20, the figure is 1.65; as for B21, 0.34; as for B22, 0.54.
On to B23, for which the “ratio of amount bound” value was 0.69.
As for B24, the figure is 0.61.
As to B25, the “ratio of amount bound” value was determined as 0.29.
As for B26, the figure is 0.32.
As to B27, the “ratio of amount bound” value is 0.26.
Regarding B28, the “ratio of amount bound” value turned out to be 0.44.
For B29, the “ratio of amount bound” value was determined as 0.31.
As for B30, the figure is 1.08; as for B31, 0.99; as for B32, 0.5.

The values above are taken from US20260049138A1 (Chugai, published 2026).
